What all share (assay): EMSA
Experiment [1] has as its target Oct4^151M POU domain. Conditions: homodimer on MORE (OctOct) DNA element TCCTCATGAATATTCATGAGGA; n = 3-13; parent: est. 7; read off a plot.
Experiment [2] has as its target Sox2 HMG (79-aa protein). The conditions noted are these: Sox2-Oct heterodimer on SoxOct DNA element CCATGGACATTGTAATGCAAAAGAAGCTG, n = 3-13, read off a plot.
The target in experiment [3] is Oct6^151S POU domain. Conditions: homodimer on MORE (OctOct) DNA element TCCTCATGAATATTCATGAGGA; n = 3-13; parent: est. 160; read off a plot.

Take Oct4 POU domain S151M: the other: cooperativity factor in experiment [1] worked out at 140; in experiment [2] (parent: est. 12), 29.

For the substance Oct6 POU domain M151S, the other: cooperativity factor in experiment [2] (parent: est. 4.5) came to 2.5; in experiment [3], 4.

The record behind these values is PMC5286379.
